Target: T1, SARS-CoV-2 receptor-binding domain (RBD), wild type (SARS-CoV-2, wild type (GenBank MN908947), UniProt P0DTC2)
T1 construct: also called WT
Assay: BLI
Details: both partners purified

Binder | Kd [pM]
XGv038 (antibody, V domains shown) VH: QVQLVESGGGVVQPGRSLRLSCAASGFTFNNYGIHWVRQAPGKGLEWVAVIWYDGTNKYYADSVKGRFTISRDNSKNTVYLQMNSLRAEDTAVYYCARDYEITMAAPDYWGQGTLVTVSS VL: DVVMTQSPLSLPVTLEQPASISCRSSQSLVSSDGNTYLNWFQQRPGQSPRRLIYKVSNRDSGVPDRFSGSGSGTDFTLKINRVEAEDVGIYYCMQGSHWPPTFGGGTKVEIK | 430
XGv042 (antibody, V domains shown) VH: QITLKESGPTLVKPTQTLTLTCTFSGLSMTTSGVGVGWIRQPPGKALEWLALIYWDDDKRYSPFLKSRLTITKDTSKNQVVLTMTNMDPADTGTYFCAHHTIPSIFDHWGQGTLVTVSS VL: QSALTQPASVSGSPGQSITISCTATSSDVGVYNYVSWYQQYPGKAPRLIIFEVSNRPSGVSSRFSGSKSGYTASLTISGLQTDDEADYYCSSYTTTSTVFGGGTKLTVL | 160
XGv016 (antibody, V domains shown) VH: QVQLVQSGTEVRKPGASVTVSCKASGYTFTTYHMHWVRRAPGQGLEWMGIIDPGTGGASYPQKFRGRVTLTRDTSTNTVYMELSSLRFQDTAIYYCARAEGSSWLGWFDPWGQGTLVTVSS VL: QSVLTQPPSASGTPGQRVSISCSGSSSNIGTNYVYWYQQLPGTAPKLLIYKNNQRPSGVPDRFSGSKSGTSASLAISGLRSEDEADYFCASWDNGLSGSGWVFGGGTKLTV | 160
XGv013 (antibody, V domains shown) VH: EVQLVESGGGLVQPGGSLRLSCAASGITVSSNYMTWVRQAPGKGLEWVSVIYAGGSTFYADSVKGRFTISRDNSKNTLYLQMNSLRVEDTAVYYCARDLVDYGMDVWGQGTTVTVSS VL: DIQLTQSPSFLSASVGDRVTITCRASQGIASYLAWYQQKPGKAPKLLIYAASTLQSGVPTRFSGSGSGTEFTLTIRSLQPEDSATYYCQHPSGHPPTFGGGTKVEI | 260
XGv018 (antibody, V domains shown) VH: QVQLVESGGGVVQPGRSLRLSCAASGFTFSTYGMHWVRQAPGKGLEWVAVILNDGSGKLYADSVKGRFTISRDNSKNTLYLQMSSLRAEDTAVYFCARDQGELVTYFDYWGQGTLVTVSS VL: DIQMTQSPSSLSASVGDRVTITCRASQSISRYLNWYQHKPGKAPKLLIYTTSNLQSGVPSRFSGSGSGTDFTLTISSLHPEDFATYYCQQSYNTPSWTFGQGTKVEIK | 210
XGv030 (antibody, V domains shown) VH: EVQLVESGGGLVQPGGSLRLSCAASGFSFSTYSLNWVRQAPGKGLEWVSYISSSSITIYYAHSVKGRFTISRDDAKNSLYLQVNNLRDEDTAVYYCARVLGFSDYVWGSYQRGLYGMDVWGQGTTVSVSS VL: QSALTQPASVSGSPGQSIAISCTGTSSDVGGYDFVSWYQQHPGKAPKLLIYDVTNRPSGISNRFSGSKSGNTASLTISGLQTEDEADYYCSSFTSSNTLPFVFGTGTTVTVL | 1300
XGv026 (antibody, V domains shown) VH: EVQLVESGGGVIQPGGSLRLSCAASEIIVSSNYMNWVRQAPGKGLEWVSVIYPGGSSFYADSVKGRFTISRDNSKNTLYLQMNSLRVEDTAVYYCARDSPHRPGTIWGQGTLVVVSS VL: DIQMTQSPSSLSASVGDRVTITCRASQDINNYLNWYQQKPGKAPKLLIYDAFTLEAGVPSRFSGARFGTDFTFTISSLQPEDIATYYCHQCDNLPCTFGGGTKVEIK | 230

From article PMC11637481, “A third dose of inactivated vaccine augments the potency, breadth, and duration of anamnestic responses against SARS-CoV-2” (Protein & Cell, 2024)
